This note sets out measurements from publication PMC11205783, “HigA2 (Rv2021c) Is a Transcriptional Regulator with Multiple Regulatory Targets in Mycobacterium tuberculosis”.

The data set concerns the target T1, HigA2 (Mycobacterium tuberculosis H37Rv, UniProt O53467 1-101).
T1 sequence: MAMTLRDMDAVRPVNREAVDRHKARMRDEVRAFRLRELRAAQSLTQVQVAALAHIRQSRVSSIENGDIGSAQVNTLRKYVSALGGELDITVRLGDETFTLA
As to the kind of experiment: EMSA; EMSA: 20 mM Tris-HCl, 150 mM NaCl, pH 8.0, 37 °C, 5 min, HigA2 1 uM (titrated in Fig 4); agarose or native PAGE. Pull-down: streptavidin beads, 4 °C, PBS washes. Particulars: protein: recombinant; tags: C-terminal 6xHis; chain copies: 2.

B1: seq6 m6 (dsDNA)
DNA 1: CGCTGCTCTTACCCGGAGGAGCATCACCCTTGTGTGATCACGCGTATCGCGCTACTCTG
DNA 2: CAGAGTAGCGCGATACGCGTGATCACACAAGGGTGATGCTCCTCCGGGTAAGAGCAGCG
Consider B1, for which the binding result is “binds”.

B2: seq6 m4 (dsDNA)
DNA 1: CGCTGCTCTTACCCGGAGGAATATCACAGGTCCGTGATATCGCGTATCGCGCTACTCTG
DNA 2: CAGAGTAGCGCGATACGCGATATCACGGACCTGTGATATTCCTCCGGGTAAGAGCAGCG
B2: the binding result is “binds”.

B3: seq6 m5 (dsDNA)
DNA 1: CTGCTCAAAGATCGACTAGTATATCACAGGTCCGTGATATGACGTATACCTTTGGTGCA
DNA 2: TGCACCAAAGGTATACGTCATATCACGGACCTGTGATATACTAGTCGATCTTTGAGCAG
On to B3, for which the binding result is “binds”.
